# Target: prostate-specific antigen (PSA) (human, UniProt P07288 25-261)
# Assay: electrochemical aptasensor (CV, SWV, EIS); ferrocyanide or TiO2/CQDs redox probe; 30 min binding; detection 0.5-7 ng/ml; LOD is not a Kd; Aptamer electrode washed with 0.1 mol/L PBS pH 7.0; PSA 30 min; 1.0 mM K3/K4[Fe(CN)6] (1:1), or TiO2/CQDs electrolyte at pH 5.4 and pH 8; temperature not stated
# Conditions: protein: commercial
# prostate-specific antigen (PSA), sequence (P07288 25-261): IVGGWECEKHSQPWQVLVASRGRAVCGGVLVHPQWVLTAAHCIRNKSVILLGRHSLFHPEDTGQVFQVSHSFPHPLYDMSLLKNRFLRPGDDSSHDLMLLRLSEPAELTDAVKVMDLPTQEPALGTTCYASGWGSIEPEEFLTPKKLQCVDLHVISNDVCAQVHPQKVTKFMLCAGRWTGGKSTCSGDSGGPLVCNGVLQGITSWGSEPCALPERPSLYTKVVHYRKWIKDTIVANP
binder,measurement,value
"TTTTTTTTTTATTAAAGCTCGCCATCAAATAGCTGC (ssDNA, 5'-HS (thiol)) [thiolated PSA binding DNA aptamer]",binding result,binds
